The target of the test is IL-1 receptor (human) (UniProt P14778). Nature of the test: cell-based or functional assay.
Chain of UniProt P14778 (P14778 18-569): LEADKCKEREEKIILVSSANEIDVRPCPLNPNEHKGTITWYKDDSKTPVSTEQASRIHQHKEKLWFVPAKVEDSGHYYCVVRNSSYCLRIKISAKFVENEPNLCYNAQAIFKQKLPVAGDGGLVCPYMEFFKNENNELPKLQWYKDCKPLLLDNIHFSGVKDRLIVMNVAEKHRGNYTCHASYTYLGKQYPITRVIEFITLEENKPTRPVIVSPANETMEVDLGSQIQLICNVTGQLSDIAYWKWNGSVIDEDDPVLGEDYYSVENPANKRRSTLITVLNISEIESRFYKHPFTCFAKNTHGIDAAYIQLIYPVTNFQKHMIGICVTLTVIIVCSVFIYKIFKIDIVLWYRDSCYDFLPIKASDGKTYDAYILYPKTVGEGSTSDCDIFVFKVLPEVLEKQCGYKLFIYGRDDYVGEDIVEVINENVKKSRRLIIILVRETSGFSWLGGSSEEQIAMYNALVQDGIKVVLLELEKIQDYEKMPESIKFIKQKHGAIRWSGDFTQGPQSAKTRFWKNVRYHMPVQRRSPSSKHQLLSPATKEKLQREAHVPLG

In turn, “Kineret® (anakinra) (from UniProt P18510 26-177) (ligand)” displayed an IC50, inhibition of IL-1β induced production of IL-8 in human whole blood (100 pM rhIL-1β) of 53.4 pM.

The values above are taken from patent US20080292640A1.
